Measurements taken from patent US20050164936.

Tests used:
[1] = molecular target: MCP-1, P13500
[2] = molecular target: T1, MCP-2, P80075
T1 chain: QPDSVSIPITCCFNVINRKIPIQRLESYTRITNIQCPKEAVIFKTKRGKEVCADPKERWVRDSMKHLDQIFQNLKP

[3] = molecular target: T2, RANTES(1-68)
T2 chain: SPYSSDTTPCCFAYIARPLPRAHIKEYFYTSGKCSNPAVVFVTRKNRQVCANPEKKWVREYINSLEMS

[4] = molecular target: monocyte chemotactic protein-3 (MCP-3), P80098
Sequence of monocyte chemotactic protein-3 (MCP-3), P80098 (P80098 24-99): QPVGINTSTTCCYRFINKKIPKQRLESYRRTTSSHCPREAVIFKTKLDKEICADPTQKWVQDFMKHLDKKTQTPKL

Sequence of MCP-1, P13500 (P13500 whole entry, looked up): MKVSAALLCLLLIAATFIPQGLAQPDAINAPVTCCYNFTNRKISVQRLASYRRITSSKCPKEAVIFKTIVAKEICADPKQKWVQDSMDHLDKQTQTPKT

B1: Human CD26/DPP IV (protein)
chain: MKTPWKVLLGLLGAAALVTIITVPVVLLNKGTDDATADSRKTYTLTDYLKNTYRLKLYSLRWISDHEYLYKQENNILVFNAEYGNSSVFLENSTFDEFGHSINDYSISPDGQFILLEYNYVKQWRHSYTASYDIYDLNKRQLITEERIPNNTQWVTWSPVGHKLAYVWNNDIYVKIEPNLPSYRITWTGKEDIIYNGITDWVYEEEVFSAYSALWWSPNGTFLAYAQFNDTEVPLIEYSFYSDESLQYPKTVRVPYPKAGAVNPTVKFFVVNTDSLSSVTNATSIQITAPASMLIGDHYLCDVTWATQERISLQWLRRIQNYSVMDICDYDESSGRWNCLVARQHIEMSTTGWVGRFRPSEPHFTLDGNSFYKIISNEEGYRHICYFQIDKKDCTFITKGTWEVIGIEALTSDYLYYISNEYKGMPGGRNLYKIQLSDYTKVTCLSCELNPERCQYYSVSFSKEAKYYQLRCSGPGLPLYTLHSSVNDKGLRVLEDNSALDKMLQNVQMPSKKLDFIILNETKFWYQMILPPHFDKSKKYPLLLDVYAGPCSQKADTVFRLNWATYLASTENIIVASFDGRGSGYQGDKIMHAINRRLGTFEVEDQIEAARQFSKMGFVDNKRIAIWGWSYGGYVTSMVLGSGSGVFKCGIAVAPVSRWEYYDSVYTERYMGLPTPEDNLDHYRNSTVMSRAENFKQVEYLLIHGTADDNVHFQQSAQISKALVDVGVDFQAMWYTDEDHGIASSTAHQHIYTHMSHFIKQCFSLP
proteolytic processing (overnight incubation, Edman degradation) [1]: no NH2-terminal sequence could be detected, indicating that CD26/DPP IV does not alter the NH2-terminus of MCPs
proteolytic processing (overnight incubation, Edman degradation) [2]: no NH2-terminal sequence could be detected, indicating that CD26/DPP IV does not alter the NH2-terminus of MCPs
proteolytic processing (overnight incubation, Edman degradation) [3]: CD26/DPP IV treatment of RANTES resulted in the removal of the NH2-terminal dipeptides
proteolytic processing (overnight incubation, Edman degradation) [4]: no NH2-terminal sequence could be detected, indicating that CD26/DPP IV does not alter the NH2-terminus of MCPs
